Here are results for one molecule from publication PMC4046507 (2014).

This experiment concerns the target T1, proteolipoprotein (PLP), substituted analog peptide on I-Ag7 (mouse, substituted analog of PLP 56-70 carrying lysine for tyrosine at positions 57 and 59 (residues worked out from the printed peptide and this description; the analog's own residues are not given)).
T1 peptide: DKEKLINVIHAFQYV
The experiment can be described thus: cytokine release.

B1: Th2-derived TCRαβ transgenic receptor (TRAV17 TRAJ50 / TRBV31 TRBJ2-3) (TCR)
alpha TRAV17 TRAJ50 CDR3: CALEGIASSSFSKLVF
beta TRBV31 TRBJ2-3 CDR3: CAWSLGGGAETLYF
Turning to B1, the binding result is “recognises”.
